According to US20190142971A1, “FORMULATION AND DELIVERY OF MODIFIED NUCLEOSIDE, NUCLEOTIDE, AND NUCLEIC ACID COMPOSITIONS” (ModernaTX, Inc., priority 2013, published 2019):
Like-named read-outs stand apart in the source and are kept apart here.

How the values were obtained:
rat myoblast (L6 line) = test: Example 44: signal sequence exchange, secreted G-CSF ELISA (Table 70); type: cell-based; conditions: RM (rat myoblast L6), 250 ng mRNA, supernatant 24 hrs
Text: (§1) These variants included the G-CSF constructs encoding either the wild-type N terminal secretory signal peptide sequence ([…]; SEQ ID NO: 19), no secretory signal peptide sequence, or secretory signal peptide sequences taken from other mRNAs. These included sequences where the wild type GCSF signal peptide sequence was replaced with the signal peptide sequence of either: human α-1-anti trypsin (AAT) ([…]; SEQ ID NO: 20), human Factor IX (FIX) ([…]; SEQ ID NO: 21), human Prolactin (Prolac) ([…]; SEQ ID NO: 22), or human Albumin (Alb) ([…]; SEQ ID NO: 23).
(§2) 250 ng of modified mRNA encoding each G-CSF variant was transfected into HEK293A (293A in the table), mouse myoblast (MM in the table) (C2C12, CRL-1772, ATCC) and rat myoblast (RM in the table) (L6 line, CRL-1458, ATCC) cell lines in a 24 well plate using 1 ul of Lipofectamine 2000 (Life Technologies), each well containing 300,000 cells. […] The data shown in Table 70 reveal that cells transfected with G-CSF mmRNA encoding the Albumin signal peptide secrete at least 12 fold more G-CSF protein than its wild type counterpart.

HEK293A = test: as above; type: cell-based; conditions: 293A, 250 ng mRNA, Lipofectamine 2000, supernatant 24 hrs
Text: as §1, §2

mouse myoblast (C2C12) = test: as above; type: cell-based; conditions: MM (mouse myoblast C2C12), 250 ng mRNA, supernatant 24 hrs
Text: as §1, §2

HEK 293A cells = test: Example 64B: Factor IX mRNA half-life by quantitative Real-Time PCR; type: cell-based, Human; conditions: HEK293
Protocol: The transfection complexes were removed 3 hours after transfection. […] Total RNA was isolated and used for cDNA synthesis.

[1] = Example 64A: Factor IX mRNA in serum-free media, peptides by MALDI; type: cell-based
Text: The cell culture supernatant was collected and subjected to trypsin digestion before undergoing 2-dimensional HPLC separation of the peptides. Matrix-assisted laser desorption/ionization was used to detect the peptides. 8 peptides were detected and 7 of the detected peptides are unique to Factor IX.

mice [2] = conditions: for Serum Concentration 8-12 hours after administration: Factor IX; for Factor IX Protein Expression, Conc: LNP IV, mice, 8 hrs
mice [3] = test: Example 39: Factor IX mmRNA IM in mice, serum Factor IX at 13 hours; type: in vivo; conditions: 2×100 ug/mouse IM
Protocol: Human Factor IX mmRNA (Gen1; fully modified 5-methycytosine and pseudouridine) formulated in formulation buffer was delivered to mice via intramuscular injection.
The mice were bled at 13 hours after the intramuscular injection to determine the concentration of human the polypeptide in serum in pg/mL.

human PBMC [4] = test: Example 45: PBMC transfection, G-CSF ELISA (Table 71); type: cell-based
Protocol: (§3) The plates were then incubated at 37 C.
(§4) Each condition was done in duplicate.
(§5) Shown in Tables 71 and 72 are the average from 2 separate PBMC donors of the G-CSF and IFN-alpha production over time as measured by specific ELISA.

BALB/C mice = test: Example 59: G-CSF mRNA IM in mice, serum human G-CSF and mouse IFN-alpha ELISA (Table 93); type: in vivo
Sprague Dawley rats = test: Example 60: G-CSF/Factor IX mRNA IM in rats, serum G-CSF ELISA (Table 94); type: in vivo
Protocol: Protein production of modified mRNA was evaluated by delivering modified G-CSF mRNA or modified Factor IX mRNA to female Sprague Dawley rats (n=6). […] Blood was collected 8 hours after injection and the G-CSF protein level in serum was measured by ELISA.

BJ fibroblasts = conditions: for IFN-beta / IL-6: 250 ng transfected daily for 5 days
human PBMC [5] = test: Example 45: PBMC transfection, IFN-alpha ELISA (Table 72); type: cell-based
Protocol: as §3, §4, §5

C57/BL6 mice = test: Example 32C: G-CSF lipoplex vs saline IM, SC in mice, serum G-CSF ELISA at 13 hours (Table 57); type: in vivo; conditions: IM or SC
Protocol: A formulation containing 100 μg of either modified human G-CSF mRNA lipoplexed with 30% by volume of RNAIMAX™ with a 5-methylcytosine (5mc) and a pseudouridine (ψ) modification (G-CSF-Gen1-Lipoplex), modified human G-CSF mRNA with a 5mc and ψ modification in saline (G-CSF-Gen1-Saline), modified human G-CSF mRNA with a N1-5-methylcytosine (N1-5mc) and a ψ modification lipoplexed with 30% by volume of RNAIMAX™ (G-CSF-Gen2-Lipoplex), modified human G-CSF mRNA with a N1-5mc and ψ modification in saline (G-CSF-Gen2-Saline), modified luciferase with a 5mc and ψ modification lipoplexed with 30% by volume of RNAIMAX™ (Luc-Lipoplex), or modified luciferase mRNA with a a 5mc and w modification in saline (Luc-Saline) was delivered intramuscularly (I.M.) or subcutaneously (S.C.) and a control group for each method of administration was giving a dose of 80 uL of the formulation buffer (F. Buffer) to C57/BL6 mice. 13 hours post injection serum and tissue from the site of injection were collected from each mouse and analyzed by G-CSF ELISA to compare human G-CSF protein levels. The results of the human G-CSF protein in mouse serum from the intramuscular administration and the subcutaneous administration results are shown in Table 57.

mice [6] = test: Example 40: multi-site IM/SC G-CSF mRNA in mice, neutrophil count (Table 65); type: in vivo; conditions: day 3
Protocol: Injection of four doses or 2×50 ug (two sites) daily for three days (24 hrs interval) was performed. The fourth dose was administered 6 hrs before blood collection and CBC analysis. […] The mice were bled at 72 hours after the first mRNA injection (6 hours after the last mRNA dose) to determine the effect of mRNA-encoded human G-CSF on the neutrophil count. The dosing regimen is shown in Table 65 as are the resulting neutrophil counts (thousands/uL). In Table 65, an asterisks (*) indicate statistical significance at p<0.05.

Question: What does the source list for “Factor IX: modified mRNA encoding human Factor IX, SEQ ID NO: 8, Cap1, fully modified with 5-methylcytosine and pseudouridine”?
Answer: secreted G-CSF protein (rat myoblast (L6 line)): 11675 pg/mL; secreted G-CSF protein (HEK293A): 11675 pg/mL; secreted G-CSF protein (mouse myoblast (C2C12)): 6175 pg/mL; half-life of mRNA (HEK 293A cells): 8 to 10 h; Factor IX protein expression (peptides by MALDI) [1]: able to express full-length Factor IX protein; Factor IX protein expression determined by ELISA (mice [2]; 100 ug dose group): 3000 to 11000 ng/mL; Serum Concentration 8-12 hours after administration (mice [2]; IM, 2 × 100 ug): ~1.6 ng/mL; Serum Concentration 8-12 hours after administration (mice [2]; IV (LNP), 1 ug): ~40 ng/mL; Serum Concentration 8-12 hours after administration (mice [2]; IV (LNP), 10 ug): ~400 ng/mL; Serum Concentration 8-12 hours after administration (mice [2]; IV (LNP), 100 ug): ~3,000-10,000 ng/ml; Factor IX Protein Expression, Conc (mice [2]; dose 10 ug): 383.04 ng/mL; Factor IX Protein Expression, Conc (mice [2]; dose 100 ug, dilution factor 50x): 3247.75 ng/mL; Factor IX Protein Expression, Conc (mice [2]; dose 100 ug, dilution factor 250x): 11177.20 ng/mL; Factor IX in serum (mice [3]): 1600 pg/mL

B1: G-CSF Gen 2: G-CSF mRNA (SEQ ID NO: 4) fully modified with 5-methylcytosine and N1-methylpseudouridine (nucleic acid)
chain: GGGAAAUAAGAGAGAAAAGAAGAGUAAGAAGAAAUAUAAGAGCCACCAUGGCCGGUCCCGCGACCCAAAGCCCCAUGAAACUUAUGGCCCUGCAGUUGCUGCUUUGGCACUCGGCCCUCUGGACAGUCCAAGAAGCGACUCCUCUCGGACCUGCCUCAUCGUUGCCGCAGUCAUUCCUUUUGAAGUGUCUGGAGCAGGUGCGAAAGAUUCAGGGCGAUGGAGCCGCACUCCAAGAGAAGCUCUGCGCGACAUACAAACUUUGCCAUCCCGAGGAGCUCGUACUGCUCGGGCACAGCUUGGGGAUUCCCUGGGCUCCUCUCUCGUCCUGUCCGUCGCAGGCUUUGCAGUUGGCAGGGUGCCUUUCCCAGCUCCACUCCGGUUUGUUCUUGUAUCAGGGACUGCUGCAAGCCCUUGAGGGAAUCUCGCCAGAAUUGGGCCCGACGCUGGACACGUUGCAGCUCGACGUGGCGGAUUUCGCAACAACCAUCUGGCAGCAGAUGGAGGAACUGGGGAUGGCACCCGCGCUGCAGCCCACGCAGGGGGCAAUGCCGGCCUUUGCGUCCGCGUUUCAGCGCAGGGCGGGUGGAGUCCUCGUAGCGAGCCACCUUCAAUCAUUUUUGGAAGUCUCGUACCGGGUGCUGAGACAUCUUGCGCAGCCGUGAAGCGCUGCCUUCUGCGGGGCUUGCCUUCUGGCCAUGCCCUUCUUCUCUCCCUUGCACCUGUACCUCUUGGUCUUUGAAUAAAGCCUGAGUAGGAAG
modifications: 5-methylcytosine, N1-methylpseudouridine
Question: Which G-CSF production (human PBMC [4]) does the source give for B1 here?
Answer: highest level of G-CSF production

Question: What about the “Protein: Cytokine Ratio (PC Ratio)” value (BALB/C mice; G-CSF / IFN-alpha) of the same molecule?
Answer: 748

Question: And the “human G-CSF expression in mouse serum” value (BALB/C mice; IM, 8 hours)?
Answer: resulted in human G-CSF expression in mouse serum

Question: What about the “mouse IFN-alpha in the serum (cytokine response)” value (BALB/C mice; IM, 8 hours) of the same molecule?
Answer: no detectable IFN-alpha

Question: And the “human G-CSF protein production, Gen 2 vs Gen 1 chemistry” value (Sprague Dawley rats; 400 ug IM, rats, 8 hours)?
Answer: human G-CSF protein production is improved

Question: What about the “G-CSF protein in rat serum” value (Sprague Dawley rats; I.M., 400 ug in 100 ul, 5% sucrose, 8 hours after injection) of the same molecule?
Answer: 64.72 pg/mL

Question: What about the “time to cytokine response (IFN-beta, IL-6)” value (BJ fibroblasts) of the same molecule?
Answer: 3 to 5 days

Question: And the IFN-beta (BJ fibroblasts; 6 hours)?
Answer: 0 pg/mL

Question: And the IL-6 (BJ fibroblasts; 6 hours)?
Answer: 3337 pg/mL

Question: And the IFN-beta (BJ fibroblasts; Day 1)?
Answer: 0 pg/mL

Question: What about the IL-6 (BJ fibroblasts; Day 1) of the same molecule?
Answer: 3733 pg/mL

Question: And the IFN-beta (BJ fibroblasts; Day 2)?
Answer: 150 pg/mL

Question: And the IL-6 (BJ fibroblasts; Day 2)?
Answer: 974 pg/mL

Question: What about the IFN-beta (BJ fibroblasts; Day 3) of the same molecule?
Answer: 213 pg/mL

Question: What about the IL-6 (BJ fibroblasts; Day 3) of the same molecule?
Answer: 4972 pg/mL

Question: What about the IFN-beta (BJ fibroblasts; Day 4) of the same molecule?
Answer: 1400 pg/mL

Question: And the IL-6 (BJ fibroblasts; Day 4)?
Answer: 4122 pg/mL

Question: What about the IFN-beta (BJ fibroblasts; Day 5) of the same molecule?
Answer: 350 pg/mL

Question: What about the IL-6 (BJ fibroblasts; Day 5) of the same molecule?
Answer: 2906 pg/mL

Question: And the “IFN-alpha / cytokine production” value (human PBMC [5])?
Answer: did not significantly increase cytokines

Question: And the “human G-CSF protein production relative to 5-methylcytosine/pseudouridine mRNA” value (C57/BL6 mice)?
Answer: increased human G-CSF protein production

Question: And the “increase in neutrophil count above control” value (mice [6]; intramuscular)?
Answer: two fold increase

Question: What about the “increase in neutrophil count above control” value (mice [6]; subcutaneous) of the same molecule?
Answer: two fold increase
